Source: patent publication US20100311659A1

Experiments:
[1] = system: T1, wild-type FVIII (recombinant human factor VIII with deletion of the B domain)
T1 sequence: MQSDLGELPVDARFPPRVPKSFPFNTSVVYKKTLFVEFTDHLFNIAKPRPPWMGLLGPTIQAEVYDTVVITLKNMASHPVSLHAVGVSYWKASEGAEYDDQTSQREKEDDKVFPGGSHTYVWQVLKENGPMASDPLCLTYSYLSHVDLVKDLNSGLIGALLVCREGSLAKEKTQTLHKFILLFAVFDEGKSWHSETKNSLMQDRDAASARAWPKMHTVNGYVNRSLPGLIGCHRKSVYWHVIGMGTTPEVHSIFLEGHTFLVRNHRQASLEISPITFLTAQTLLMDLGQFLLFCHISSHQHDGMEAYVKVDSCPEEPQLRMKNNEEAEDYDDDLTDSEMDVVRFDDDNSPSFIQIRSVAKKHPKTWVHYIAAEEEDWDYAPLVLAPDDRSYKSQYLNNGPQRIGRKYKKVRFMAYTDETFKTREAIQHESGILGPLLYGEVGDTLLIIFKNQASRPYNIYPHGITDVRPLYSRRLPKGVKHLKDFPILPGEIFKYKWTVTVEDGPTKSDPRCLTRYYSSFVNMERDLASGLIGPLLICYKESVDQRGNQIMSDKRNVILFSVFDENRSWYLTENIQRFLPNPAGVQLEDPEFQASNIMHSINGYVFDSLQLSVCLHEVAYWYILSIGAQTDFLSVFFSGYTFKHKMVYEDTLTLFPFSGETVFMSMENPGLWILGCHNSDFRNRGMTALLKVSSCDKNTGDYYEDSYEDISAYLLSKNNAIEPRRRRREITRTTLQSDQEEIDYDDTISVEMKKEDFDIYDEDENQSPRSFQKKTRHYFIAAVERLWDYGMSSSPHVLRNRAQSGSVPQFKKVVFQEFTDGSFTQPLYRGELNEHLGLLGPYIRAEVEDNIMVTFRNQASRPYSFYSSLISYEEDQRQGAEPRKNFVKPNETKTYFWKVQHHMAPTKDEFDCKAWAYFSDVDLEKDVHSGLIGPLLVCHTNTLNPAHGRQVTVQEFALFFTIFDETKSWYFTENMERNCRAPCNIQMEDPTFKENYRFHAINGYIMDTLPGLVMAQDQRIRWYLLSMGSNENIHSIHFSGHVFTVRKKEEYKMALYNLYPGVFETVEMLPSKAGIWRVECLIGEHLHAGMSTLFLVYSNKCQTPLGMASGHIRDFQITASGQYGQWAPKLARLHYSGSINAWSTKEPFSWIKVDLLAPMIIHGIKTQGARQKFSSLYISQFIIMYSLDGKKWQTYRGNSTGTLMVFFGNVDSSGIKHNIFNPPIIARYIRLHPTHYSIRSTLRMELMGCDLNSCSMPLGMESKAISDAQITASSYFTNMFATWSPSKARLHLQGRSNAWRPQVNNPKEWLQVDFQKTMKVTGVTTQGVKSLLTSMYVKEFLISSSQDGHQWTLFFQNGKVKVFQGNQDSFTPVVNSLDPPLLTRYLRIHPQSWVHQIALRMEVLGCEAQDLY

[2] = system: FVIII-4A2 (quadruple mutant combining the A2 mutations 409, 462, 507, 629)

Substance: Thrombin
- activation by thrombin (FXa generation over time) [1]: FVIII-4A2 is identically recognized by thrombin as wild-type FVIII with a relative decrease of activity which might be caused by one of the four mutations
- activation by thrombin (FXa generation over time) [2]: FVIII-4A2 is identically recognized by thrombin as wild-type FVIII with a relative decrease of activity which might be caused by one of the four mutations
